Measurements: publication PMC2613638 (The Journal of Biological Chemistry, 2009)
“And” between values parts separate entries of the source, which are not always exact repeats. Identical values can stand only once. Values belong to the molecule of their own block, whether it stands above or below them.

Legend:
human CMKLR1 = biological target: T1, human CMKLR1 (Homo sapiens, UniProt Q99788); assay: In vitro transwell chemotaxis of CMKLR1/L1.2 transfectants; type: cell-based
T1 sequence (Q99788 1-373): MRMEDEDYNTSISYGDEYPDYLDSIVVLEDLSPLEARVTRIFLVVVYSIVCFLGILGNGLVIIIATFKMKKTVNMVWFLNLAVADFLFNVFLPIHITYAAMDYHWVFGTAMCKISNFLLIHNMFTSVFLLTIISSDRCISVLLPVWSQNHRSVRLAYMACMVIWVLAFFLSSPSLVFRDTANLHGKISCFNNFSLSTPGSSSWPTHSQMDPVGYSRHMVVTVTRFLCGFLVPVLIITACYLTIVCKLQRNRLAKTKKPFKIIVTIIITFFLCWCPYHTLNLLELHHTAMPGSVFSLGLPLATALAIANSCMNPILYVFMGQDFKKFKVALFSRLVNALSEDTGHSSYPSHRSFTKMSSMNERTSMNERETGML

CPB (TAFIa) = biological target: T2, CPB (TAFIa) (Homo sapiens, UniProt Q96IY4); conditions: CPB cleavage of comparison peptides; cited from earlier work
T2 sequence (Q96IY4 115-423): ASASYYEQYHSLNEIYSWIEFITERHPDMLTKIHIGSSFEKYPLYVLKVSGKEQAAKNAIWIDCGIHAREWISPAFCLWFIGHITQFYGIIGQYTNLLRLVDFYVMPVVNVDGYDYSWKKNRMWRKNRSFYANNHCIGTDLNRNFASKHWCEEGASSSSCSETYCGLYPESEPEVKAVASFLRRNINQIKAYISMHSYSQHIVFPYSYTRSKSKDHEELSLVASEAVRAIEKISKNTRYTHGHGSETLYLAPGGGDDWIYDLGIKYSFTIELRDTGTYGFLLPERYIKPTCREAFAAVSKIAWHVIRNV

CPN = biological target: T3, CPN (Homo sapiens, UniProt P15169); conditions: CPN cleavage of comparison peptides; cited from earlier work
T3 sequence (P15169 21-458): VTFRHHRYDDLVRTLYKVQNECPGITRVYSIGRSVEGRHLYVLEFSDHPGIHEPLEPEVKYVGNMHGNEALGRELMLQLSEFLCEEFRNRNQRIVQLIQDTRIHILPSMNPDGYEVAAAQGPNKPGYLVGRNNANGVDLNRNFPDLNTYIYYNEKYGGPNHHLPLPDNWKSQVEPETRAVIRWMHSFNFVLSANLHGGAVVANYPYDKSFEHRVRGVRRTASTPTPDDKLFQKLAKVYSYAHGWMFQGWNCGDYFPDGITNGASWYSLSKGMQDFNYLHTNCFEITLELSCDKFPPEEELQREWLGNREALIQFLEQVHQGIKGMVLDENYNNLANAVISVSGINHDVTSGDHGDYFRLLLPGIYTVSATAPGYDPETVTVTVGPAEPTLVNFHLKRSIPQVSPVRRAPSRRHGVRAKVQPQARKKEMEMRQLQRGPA

Tryptase = conditions: cited from earlier work
plasmin = assay: plasmin; conditions: human
Staphopain B = conditions: cited from earlier work
Elastase = conditions: cited from earlier work
Cathepsin G = conditions: cited from earlier work
Human plasmin = assay: plasmin; conditions: 37°, up to 30 min
plasmin followed by CPN = assay: plasmin; conditions: 37 °C, up to 30 min plasmin, then 30 min CPN
plasmin followed by CPB = assay: plasmin; conditions: human, 37 °C, up to 30 min plasmin, then 30 min CPB
washed platelets = assay: Chemerin release from washed platelets; type: cell-based, human; conditions: 37 °C for 3 min; thrombin receptor-activating peptide 20 μM, collagen 10 μg/ml, ADP 10 μM; Fig. 6C

Molecule: Bradykinin (RPPGFSPFR; Bradykinin; UniProt P01042 381-389, looked up)
Km (CPB (TAFIa)): 70.6 ± 4.8 µM
kcat (CPB (TAFIa)): 19.7 ± 4.8 s⁻¹
kcat/Km (CPB (TAFIa)): 280000 M⁻¹ s⁻¹
Km (CPN): 303 ± 29.1 µM
kcat (CPN): 9.1 ± 0.2 s⁻¹
kcat/Km (CPN): 30000 M⁻¹ s⁻¹

Molecule: C3a^69-77: comparison substrate peptide derived from C3a (RASHLGLAR; C3a anaphylatoxin; UniProt P01024 740-748, looked up, fragment)
Km (CPB (TAFIa)): 35.9 ± 6.6 µM
kcat (CPB (TAFIa)): 8.4 ± 0.6 s⁻¹
kcat/Km (CPB (TAFIa)): 230000 M⁻¹ s⁻¹
Km (CPN): 77.1 ± 11.2 µM
kcat (CPN): 57.9 ± 2.1 s⁻¹
kcat/Km (CPN): 750000 M⁻¹ s⁻¹

Molecule: C5a^66-74: comparison substrate peptide derived from C5a (SHKDMQLGR; C5a anaphylatoxin; UniProt P01031 743-751, looked up, fragment)
Km (CPB (TAFIa)): 219 ± 16.2 µM
kcat (CPB (TAFIa)): 29.5 ± 0.7 s⁻¹
kcat/Km (CPB (TAFIa)): 130000 M⁻¹ s⁻¹
Km (CPN): 602 ± 74.3 µM
kcat (CPN): 9.3 ± 0.4 s⁻¹
kcat/Km (CPN): 15000 M⁻¹ s⁻¹

Molecule: collagen
release of chemerin from washed platelets (washed platelets): induced the release of chemerin

Molecule: thrombin
chemerin activities of PPP after addition of thrombin (human CMKLR1; thrombin 5 units/ml added to PPP, 37 °C 5 min, Fig. 6B): had no effect
chemotaxis of CMKLR1-transfected cells (human CMKLR1; thrombin itself): did not induce the chemotaxis

The next lines start with results.

effect on PPP-induced increase of bioactivity of plasmin-cleaved prochemerin (human CMKLR1; MGTA 5 μM in PPP, treated prochemerin 0.2 nM, Fig. 4B): inhibited
Molecule: N=C(N)NCCSCC(CS)C(=O)O (racemic) [MGTA, DL-2-Mercaptomethyl-3 guanidinoethylthiopropanoic acid]

fragment found (plasmin): NH2-YFPGQFAFSK-COOH form (21-158)
Molecule: NH2-ADPELTEAQ...FAFSKALPRSPHHHHHH-COOH
fragment found (Tryptase): ...YFPGQFAFSK (21-158) and ...YFPGQFA (21-155)
fragment found (Staphopain B): ...YFPGQFAFS (21-157)
fragment found (Elastase): ...YFPGQFAFS (21-157) and ...YFPGQFA (21-155) and ...YFPG (21-152)
fragment found (Cathepsin G): ...YFPGQFAF (21-156)

fragment found (Human plasmin): 10-mer (YFPGQFAFSK)
fragment found (plasmin followed by CPN): 9-mer (YFPGQFAFS)
fragment found (plasmin followed by CPB): 9-mer (YFPGQFAFS)
Molecule: YFPGQFAFSKALPRS

chemotactic activity after sequential treatment with plasmin and CPN or CPB (human CMKLR1; plasmin 1 μM, CPN or CPB 30 nM, final chemerin concentration 0.5 nM, Fig. 3B): dramatically enhanced
chemotactic bioactivity after plasmin alone (human CMKLR1; prochemerin activation by plasmin, dose-response, Fig. 3A): increased its chemotactic bioactivity
B1: prochemerin: recombinant full-length prochemerin with carboxyl-terminal His6 tag, expressed in insect cells (protein, UniProt Q99969 21-163, looked up)
pro-form: ELTEAQRRGLQVALEEFHKHPPVQWAFQETSVESAVDTPFPAGIFVRLEFKLQQTSCRKRDWKKPECKVRPNGRKRKCLACIKLGSEDKVLGRLVHCPIETQVLREAEEHQETQCLRVQRAGEDPHSFYFPGQFAFSKALPRS
modifications: pro-form C-terminal His6 tag
CMKLR1-mediated chemotaxis after treatment with CPN and CPB alone (human CMKLR1; data not shown): did not induce CMKLR1-mediated chemotaxis
